In article PMC4869151 (ACS Infectious Diseases, 2016):

B1: recombinant single-chain variable fragment of the PL-2 antibody (scFv, V domains shown)
VH: DVQLKQSGPGLVQPSQSLSITCTVSGFSLIDYGVHWVRQSPGKGLEWLGVIWTGGSTDYNAAFISRLTISKDNSKSQVFFKMNSLQANDTGIYYCGRPYYGNVMDYWGQGTSVTVSS
VL: DIQMTQTTSSLSASLGDRVTISCRASQDISNYLNWYQQKPDGTVKLLIYYTSRLHSGVPSRFSGSGSGTDYSLTISNLEQEDIATYFCQQGNTFPPTFGGGTKLEIK
B2: monoclonal antibody PL-2 (antibody, V domains shown)
VH: B1 VH
VL: B1 VL

Legend:
[1] = biological target: T1, recombinant HAstV-2 capsid protein (Human astrovirus 2 (HAstV-2), entry …, UniProt Q82446, strain); assay: pull-down
[2] = biological target: T1, recombinant HAstV-2 capsid protein; assay: ELISA

| Binder | binding result [1] | binding result [2] |
| --- | --- | --- |
| B1 | binds |  |
| B2 |  | binds |
